According to PMC4840320 (Scientific Reports, 2016):
Changes are numbered by the printed parent chain. Names and notes keep the numbering of the source.

B1: GST-fused full length ARL-13 (FL) (natural protein, C. elegans, UniProt H2L0N8-2 1-367, looked up)
chain: MTEKSWFETIFCCCCHRTPIIRREIKLGCFGIGSAGKTTFLKVLKGEDPRDLLRTNGFSTVKMEYDETFHLTIYDVGGDKGIRGIWSNYYAEVHGIIYVIDYSTDETFTESIEALHSLTSNPHVQKKPIFLLLNNQNNREFDDVEISNETKIQAGQHKIVLFSHFNKYNGYLDNIKSATLTVMARAKKDRNEYQEQFVRFIDSISEHYVELSEGVKTAELALRIRQEEAKEQRRLMQMKVEHDALKADVAGLELRNQPPVQPPIPPDPPSDPKSASVHIEESPPMSLASSTIPSDIIQSTPETGTPRDPVKISQTSTKPVSPESNSVKEEPTIILKDNYFLPPKAPGRQYSRIQRIQNVLNNRVVPK
B2: His-tagged ARL-3 (natural protein, C. elegans, UniProt O45379 1-184, looked up)
chain: MGLIDVLKSFKSPSGREIRILLLGLDNAGKTTILKQLSSEDVQHVTPTKGFNVKTVAAMGDIRLNVWDIGGQRSIRPYWSNYYENIDTLIFVIDSNDKKRFDEMNIELGELLDEEKLRKVPVLIFANKQDLVTAASSEEITRKLNLDLLRDRTWHIQACSALKNEGINDGITWVASNLKPASKK
notes: ARL-3, small GTPase of C. elegans, wild type; the methods speak of full-length and/or truncated cDNAs, and no truncation of ARL-3 is named; also called His-ARL-3; source: E. coli BL21, purified (His resin); not shown: His, N-terminal, kept
B3: ARL-3 dominant active (DA, Q72L) variant, recombinant (natural protein, C. elegans, UniProt O45379 1-184, looked up)
chain: B2 chain with Q72L
notes: ARL-3, C. elegans, dominant active variant Q72L; also called ARL-3 DA; source: E. coli BL21, purified (His resin or glutathione sepharose)
B4: ARL-3 dominant negative (DN, T31N) variant, recombinant (natural protein, C. elegans, UniProt O45379 1-184, looked up)
chain: B2 chain with T31N
notes: ARL-3, C. elegans, dominant negative variant T31N; also called ARL-3 DN; ARL-3DN (T31N); source: E. coli BL21, purified (His resin or glutathione sepharose)

Columns and labels:
His-tagged ARL-3 = molecular target: B2; experiment: cell-based or functional assay
[1] = molecular target: T1, UNC-119, recombinant, as used in the GST pull-downs with ARL-3 and its variants (C. elegans, UniProt Q10658 1-219); experiment: pull-down; GST pull-down: His-tagged protein incubated with GST-tagged protein immobilised on glutathione sepharose; 25 mM Tris-HCl pH 7.4, 150 mM NaCl, 0.5% Triton X-100, 1 mM DTT, 10% glycerol, 4 hours at 4 °C; six washes; anti-His immunoblot; settings: both partners purified
T1 construct: if it carried the His tag it is the same construct as m6 and ARL-3 was GST-fused; source: E. coli BL21, purified (His resin or glutathione sepharose)
T1 sequence (Q10658 whole entry, change not shown, the tested form may be a part): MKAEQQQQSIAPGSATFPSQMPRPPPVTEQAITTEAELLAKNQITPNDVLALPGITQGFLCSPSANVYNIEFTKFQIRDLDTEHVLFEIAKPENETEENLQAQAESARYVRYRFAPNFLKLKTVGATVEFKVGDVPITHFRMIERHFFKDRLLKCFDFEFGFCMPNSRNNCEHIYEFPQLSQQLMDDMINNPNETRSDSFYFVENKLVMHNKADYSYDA

B1 was tested, and the “mantGDP release from GDP-preloaded ARL-3 (in vitro GEF assay), ARL-13 from one-tenth molar (~2 fold) to a 1:1 molar ratio” value (His-tagged ARL-3) was about 7 fold.

B2: binds [1].

B3: binds [1].

B4: binds [1].
